The results in this text go back to article PMC12524728, “Integrating Structural Bioinformatics and Functional Mechanisms of Sesquiterpene Synthases CARS and CADS in Lavandula angustifolia (Lavender)” (International Journal of Molecular Sciences, 2025).

What all share (assay): enzyme kinetics, Hanes-Woolf plot
What all share (assay type): biochemical, Lavandula angustifolia
Holding throughout (conditions): Mg2+-dependent enzyme; assay conditions only in supplement

In data set [1] the test system is T1, CC(C)=CCC/C(C)=C/CC/C(C)=C/CO[P@@](=O)(O)OP(=O)(O)O.
T1 construct: C-terminal deletion of residues 522-548; host and tags only in supplement
The text has this: enzyme kinetics, Hanes-Woolf plot on ∆522–548 (CARS)

The subject of data set [2] is T2, CC(C)=CCC/C(C)=C/CC/C(C)=C/CO[P@@](=O)(O)OP(=O)(O)O.
T2 construct: C-terminal deletion of residues 529-555; host and tags only in supplement
The text has this: enzyme kinetics, Hanes-Woolf plot on ∆529–555 (CADS)

Substrate in data set [3]: CC(C)=CCC/C(C)=C/CC/C(C)=C/CO[P@@](=O)(O)OP(=O)(O)O
The text has this:
enzyme kinetics, Hanes-Woolf plot on CADS (wild-type, full-length)

Substrate in data set [4]: CC(C)=CCC/C(C)=C/CC/C(C)=C/CO[P@@](=O)(O)OP(=O)(O)O
From the text:
enzyme kinetics, Hanes-Woolf plot on ∆1–226 (CARS)
The source holds these as a separate data set.

Substrate in data set [5]: CC(C)=CCC/C(C)=C/CC/C(C)=C/CO[P@@](=O)(O)OP(=O)(O)O
From the text: enzyme kinetics, Hanes-Woolf plot on ∆1–228 (CADS)
The source holds these as a separate data set.

Substrate in data set [6]: CC(C)=CCC/C(C)=C/CC/C(C)=C/CO[P@@](=O)(O)OP(=O)(O)O
The text has this: enzyme kinetics, Hanes-Woolf plot on CARS (wild-type, full-length)
The source holds these as a separate data set.

By Km is commonly meant the substrate concentration at which the rate is half of its maximum. Broadly, the kcat is the number of substrate molecules converted per active site and unit of time at saturation. With “∆522–548 (CARS) (Lavandula angustifolia; DEL522-548)”, in data set [1], the Km was found to be 4.96 ± 0.17 µM and the kcat is 0.391 ± 0.0115 s⁻¹.
As for “∆529–555 (CADS) (Lavandula angustifolia; DEL529-555)”, in data set [2], the Km is 7.13 ± 0.29 µM and the kcat worked out at 0.44 ± 0.00883 s⁻¹.

B1: CADS (wild-type, full-length) (Lavandula angustifolia) (protein)
chain: MATSAVVNCLGGVRPHTIRYEPNMWTHTFSNFSIDEQVQGEYAEEIEALKQEVRSMLTAATTCKEQLILIDTLERLGLSYHFETEIEQKLKEIILHINREEDASGGDCDLYTTSLGFRVIRQHQYHISCGVFEKYLDKDGKFEESLSSDTEGILSLYEAAHVRFRDETLLQEAARFSRHHLKGMEEVLESPLREKVQRALQHPLHRDIPIFYAHFFISNIYQKDDSRNELLLKLAKSNFMFLQNLYKEELSQLSRWWNKFDLKSKLPYARDRLVEAYIWGVGYHYEPRYAYVRRGLVIGIQIIAIMDDTYDNYATVDEAQLFTEMFERWSMDGIDGVPDYLKIAYHFVVSAFEDYERDAGKLGKQFAAPYFKQTIQQLARAYNQELKWVMGTQSMPSFQDYAKNSEITSCIYIMSASVFHGLESVTQETIDWLKNEPNFAVSTGMIGRYWDDIGSHERESRGGKMLTAVGCYMKQYGVSKKEAVRKFREQVEDLWKDVNKGYTAMTCMPRETAVLFLNYARMCDASYTENNDDGYTDPDFSKRKISALFLDPLVF
notes: full-length, codon-optimised gene; monomer by DLS; host and tags only in supplement
Regarding B1, in data set [3], the Km was found to be 15.86 ± 0.21 µM and the kcat came to 0.0993 ± 0.00383 s⁻¹.

B2: ∆1–226 (CARS) (Lavandula angustifolia) (protein)
chain: ETLLNFAKLDFNLVQKIHQKELNQITRWWKELDFGKNLPFARDRPVECYFWIVGVYFEPRYGIARTLLTKIIYLASVLDDIYDVYGTLAELTIFTQIIRRWDSDAMDQLPPYMRIYCKALFDVYVEMEEEMGKIRKSYAVEYAKKEMKRLAEMYFQEAQWAFSKYKPTMKEYLKVALISSGYMMMTINSLTTIEDLITEEEFNWILSEPRILRASLTITRLMDDLAGYGTEGKMSAVHYYMAENGVSEGEAFKEVSGIIKSAWKDVNAECVEPRAASTTILRCVVDFTRVIVLLYSDEDAYGNSQTKTKDLIKSVLVDPLII
notes: N-terminal deletion of residues 1-226; host and tags only in supplement
Consider B2, for which, in data set [4], the Km is 9.57 ± 0.24 µM and the kcat stood at 0.24 ± 0.00533 s⁻¹.

B3: ∆1–228 (CADS) (Lavandula angustifolia) (protein)
chain: ELLLKLAKSNFMFLQNLYKEELSQLSRWWNKFDLKSKLPYARDRLVEAYIWGVGYHYEPRYAYVRRGLVIGIQIIAIMDDTYDNYATVDEAQLFTEMFERWSMDGIDGVPDYLKIAYHFVVSAFEDYERDAGKLGKQFAAPYFKQTIQQLARAYNQELKWVMGTQSMPSFQDYAKNSEITSCIYIMSASVFHGLESVTQETIDWLKNEPNFAVSTGMIGRYWDDIGSHERESRGGKMLTAVGCYMKQYGVSKKEAVRKFREQVEDLWKDVNKGYTAMTCMPRETAVLFLNYARMCDASYTENNDDGYTDPDFSKRKISALFLDPLVF
notes: N-terminal deletion of residues 1-228; host and tags only in supplement
Consider B3, for which, in data set [5], the Km was 11.13 ± 0.37 µM and the kcat came out at 0.2937 ± 0.00233 s⁻¹.

B4: CARS (wild-type, full-length) (Lavandula angustifolia) (protein)
chain: MAAPISTNNVCSDDARPVTYHPNVWSDYFLRYTSELTEISVAKKEEHERQKEAIRNLLLQTRDDSTLKLELVDAIQRLGIGYHFEEEIHNSLRNIYDTNPIYNAEDDNLRVAALRFRLIRQQGFPAPCDVFRKFVDEEGEFKSWVSNDVEGLLNLYEASNFAVHGEEILEKALEFCSLRLEFLTQGMTNSLSMRVKEALKIPISKTLTRLGARKFMSMYQEDESHNETLLNFAKLDFNLVQKIHQKELNQITRWWKELDFGKNLPFARDRPVECYFWIVGVYFEPRYGIARTLLTKIIYLASVLDDIYDVYGTLAELTIFTQIIRRWDSDAMDQLPPYMRIYCKALFDVYVEMEEEMGKIRKSYAVEYAKKEMKRLAEMYFQEAQWAFSKYKPTMKEYLKVALISSGYMMMTINSLTTIEDLITEEEFNWILSEPRILRASLTITRLMDDLAGYGTEGKMSAVHYYMAENGVSEGEAFKEVSGIIKSAWKDVNAECVEPRAASTTILRCVVDFTRVIVLLYSDEDAYGNSQTKTKDLIKSVLVDPLII
notes: as for B1
As to B4, in data set [6], the Km came out at 11.34 ± 0.13 µM and the kcat stood at 0.104 ± 0.00183 s⁻¹.
